doi:10.1101/2023.06.21.545551 (2023)

Molecular target: MYC(303–351) (human)
Test: NMR; printed fit value 1205 uM in parentheses

Kd: > 1000 µM
B1: MYC(1–88) (domain or fragment)
chain: MPLNVSFTNRNYDLDYDSVQPYFYCDEEENFYQQQQQSELQPPAPSEDIWKKFELLPTPPLSPSRRSGLCSPSYVAVTPFSLRGDNDG
